Test results taken from the supplement of paper PMC11908140.

B1: library; numbered along this chain (parent)
chain: MRKPRAAVGSGHRKQAASQEGRQKHAKNNSQAKPSACDGLARQPEEVVLQASVSSYHLFRDVAEVTAFRGSLLSWYDQEKRDLPWRRRAEDEMDLDRRAYAVWVSEVMLQQTQVATVINYYTGWMQKWPTLQDLASASLEEVNQLWAGLGYYSRGRRLQEGARKVVEELGGHMPRTAETLQQLLPGVGRYTAGAIASIAFGQATGVVDGNVARVLCRVRAIGADPSSTLVSQQLWGLAQQLVDPARPGDFNQAAMELGATVCTPQRPLCSQCPVESLCRARQRVEQEQLLASGSLSGSPDVEECAPNTGQCHLCLPPSEPWDQTLGVVNFPRKASRKPPREESSATCVLEQPGALGAQILLVQRPNSGLLAGLWEFPSVTWEPSEQLQRKALLQELQRWAGPLPATHLRHLGEVVHTFSHIKLTYQVYGLALEGQTPVTTVPPGARWLTQEEFHTAAVSTAMKKVFRVYQGQQPGTCMGSKRSQVSSPCSRKKPRMGQQVLDNFFRSHISTDAHSLNSAAQ

Variants of: B1
Experiment: 8OG:A repair function score (normalized; synonymous = 0, nonsense = -1) (normalized log-likelihood score); higher = more repair activity (WT-like)
Conditions: with 8OG:A DNA repair reporter (GFP) in HEK-293 MUTYH KO cells
In short: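 Lentiviral MUTYH cDNA NNN codon-scan libraries were expressed in MUTYH knockout HEK-293 cells with 10 pg/ml doxycycline, and the cells received an 8OG:A GFP repair reporter together with mCherry. At 72 h, viable mCherry+ cells went into GFP+ (repair) or GFP− bins, three replicates per tile, before tile amplicons were sequenced. A repair function score was then built from per-tile Rosace fitness scores, anchored on the synonymous and nonsense distributions. Synonymous medians sat at 0 and nonsense at -1, and variants under 300 counts per million at the start were left out.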
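Note: cells sorted at 72 h after reporter transfection.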

Variant	8OG:A repair function score
L516W	-0.0603
L516T	0.0209
L516Y	0.0181
L516V	0.0206
S518I	-0.00126
S518A	0.00286
S518R	-0.0226
S518D	-0.00955
S518T	0.014
S518P	-0.0287
S518V	-0.01
S518L	-0.0274
S518G	0.0246
S518F	-0.0829
S518K	-0.0195
S518N	0.00686
S518W	-0.0247
S518Q	-0.0542
S518C	-0.0625
S518Y	0.0286
S518E	0.0194
S518H	-0.0153
A520L	-0.0269
A520Y	0.0286
A520G	0.00375

Variant	8OG:A repair function score
A520V	-0.0172
A520E	0.0123
A520P	0.0147
A520W	-0.0228
A520M	0.0283
A520I	-0.0239
A520C	-0.000175
A520R	0.027
A520H	-0.0164
A520K	0.00969
A520T	-0.000144
A520D	-0.0192
A520Q	0.00885
A520F	0.00424
A520S	-0.0114
A520N	0.0153
A519H	-0.00545
A519V	-0.0127
A519L	-0.012
A519D	0.0164
A519M	-0.00851
A519F	0.0212
A519K	0.0032
A519W	0.00269
A519P	0.0175

Variant	8OG:A repair function score
A519Y	0.0154
A519Q	0.023
A519C	-0.00674
A519N	-0.00616
A519I	-0.0243
A519T	-0.0144
A519G	-0.00167
A519E	0.0285
A519R	0.013
A519S	0.00395
N517E	-0.0872
N517L	-0.0164
N517V	-0.00815
N517G	0.0215
N517I	-0.00121
N517A	-0.00673
N517W	-0.0342
N517S	0.00189
N517C	-0.0105
N517R	9.97e-05
N517Y	-0.0106
N517M	0.0171
N517P	0.0174
N517F	-0.0651
N517K	-0.077

Variant	8OG:A repair function score
N517Q	0.00486
N517H	0.0285
N517D	0.0077
N517T	-0.0674
Q521W	0.00491
Q521V	-0.0096
Q521P	-0.0312
Q521M	0.0277
Q521T	-0.0167
Q521G	-0.018
Q521F	-0.0187
Q521S	-0.00358
Q521R	-0.0139
Q521H	0.0162
Q521A	0.0136
Q521L	-0.0455
Q521I	-0.0216
Q521N	0.00751
Q521K	-0.0417
Q521C	0.00296
Q521Y	0.025
Q521E	0.00527
Q521D	-0.0822
